T1: human LAG-3 protein with hFc tag (hLAG-3-hFc protein) (human, UniProt P18627 23-450)
T1 construct: also called immunogen 1; LAG-3 extracellular domain protein; not shown: human IgG Fc fragment (hFc) of the pCpC vector
T1 sequence: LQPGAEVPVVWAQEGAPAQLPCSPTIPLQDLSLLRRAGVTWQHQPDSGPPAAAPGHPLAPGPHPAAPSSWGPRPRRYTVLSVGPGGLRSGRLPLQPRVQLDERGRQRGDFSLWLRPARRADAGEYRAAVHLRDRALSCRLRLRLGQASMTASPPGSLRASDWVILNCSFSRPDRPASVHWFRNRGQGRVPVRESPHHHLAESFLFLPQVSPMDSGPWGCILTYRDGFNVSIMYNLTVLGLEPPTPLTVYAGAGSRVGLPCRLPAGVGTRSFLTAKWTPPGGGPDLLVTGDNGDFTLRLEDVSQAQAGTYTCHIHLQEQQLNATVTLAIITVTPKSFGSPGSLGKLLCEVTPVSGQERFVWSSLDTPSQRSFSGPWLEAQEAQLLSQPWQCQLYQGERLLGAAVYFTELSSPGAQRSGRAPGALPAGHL

T2: monkey LAG-3 (full length, on the cell surface) (monkey, UniProt P18627 24-525 (human entry))
T2 construct: also called HEK293-cLAG-3; monkey LAG-3 protein on the cell surface
T2 chain: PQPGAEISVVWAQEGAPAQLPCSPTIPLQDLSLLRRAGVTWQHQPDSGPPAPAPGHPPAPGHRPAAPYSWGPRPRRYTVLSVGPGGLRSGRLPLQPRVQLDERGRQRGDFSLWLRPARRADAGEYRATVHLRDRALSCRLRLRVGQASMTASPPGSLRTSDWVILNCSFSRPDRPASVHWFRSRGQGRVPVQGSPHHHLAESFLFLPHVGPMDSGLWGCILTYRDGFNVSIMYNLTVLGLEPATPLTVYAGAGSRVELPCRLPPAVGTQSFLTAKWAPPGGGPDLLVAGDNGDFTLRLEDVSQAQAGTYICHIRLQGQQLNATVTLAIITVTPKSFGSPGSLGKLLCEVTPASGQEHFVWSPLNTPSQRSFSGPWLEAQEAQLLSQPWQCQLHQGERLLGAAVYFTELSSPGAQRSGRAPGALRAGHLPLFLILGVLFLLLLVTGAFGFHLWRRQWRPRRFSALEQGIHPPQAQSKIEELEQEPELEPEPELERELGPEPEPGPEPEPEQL

T3: mouse LAG-3 protein with hFc tag (mLAG-3-hFc protein) (mouse; human, UniProt Q61790 24-442)
T3 construct: Made in HEK293 cells; also called mouse LAG-3 extracellular domain protein; not shown: human IgG Fc fragment (hFc) of the pCpC vector
T3 sequence: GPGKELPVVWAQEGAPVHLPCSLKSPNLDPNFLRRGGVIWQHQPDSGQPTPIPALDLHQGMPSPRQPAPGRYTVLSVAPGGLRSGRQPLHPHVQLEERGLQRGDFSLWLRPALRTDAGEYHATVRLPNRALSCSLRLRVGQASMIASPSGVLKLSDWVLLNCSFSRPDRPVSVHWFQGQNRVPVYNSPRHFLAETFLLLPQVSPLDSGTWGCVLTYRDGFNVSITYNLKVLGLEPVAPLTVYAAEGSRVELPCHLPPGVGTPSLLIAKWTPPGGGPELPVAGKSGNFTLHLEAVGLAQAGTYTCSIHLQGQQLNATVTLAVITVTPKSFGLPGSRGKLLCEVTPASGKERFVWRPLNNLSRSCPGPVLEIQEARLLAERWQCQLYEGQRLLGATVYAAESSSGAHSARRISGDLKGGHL


Key:
[1] = target: T1, human LAG-3 protein with hFc tag …; test: FACS, blocks LAG-3-hFc binding to MHC II on Raji; 66.667 nM
Description: The FACS reaction plate incubating the Raji cells was centrifuged to discard the supernatant. The above mixture was added as 100 μl per well to Raji cells and incubated on ice for 1-2 hours. The plate was washed twice with blocking solution (PBS, 2% fetal bovine serum) by centrifugation, added with 100 microliters of fluorescent (Alexa 488)-labeled secondary antibodies per well, and incubated on ice for 1.0 hours. The plate was washed 2-3 times by centrifugation with blocking solution (PBS, 2% fetal bovine serum), added with 100 microliters of PBS per well to suspend cells, and detected using FACS (FACS Calibur, BD) and the results were analyzed. Wherein, the IgG control was murine IgG, and the data in the table is the inhibition rate (%).

[2] = target: T2, monkey LAG-3 (full length, on the cell …); test: FACS, HEK293-cLAG-3; 1.600 nM
Source text: The pIRES plasmid with the monkey-derived full-length gene was transfected into the HEK293 cell line to construct a HEK293 stable cell line containing monkey LAG-3 (herein referred to as HEK293-cLAG-3 stable cell line). The HEK293-hLAG-3 stable cell line and HEK293-cLAG-3 stable cell line were expanded in a T-75 cell culture flask to a 90% confluence. The medium was aspirated, and the cells were washed with HBSS (Hanks' Balanced Salt Solution) 1-2 times, then treated with a enzyme-free cell dissociation fluid (Versene solution: Life technology) and the cells were collected. The cells were washed with HBSS buffer for 1-2 times. After counted, the cells were diluted with HBSS to 1-2×10⁶ cells per ml, added with 1% goat serum blocking solution, incubated on ice for 20-30 minutes, and then washed with HBSS for 2 times by centrifugation. The collected cells were suspended in the FACS buffer (HBSS+1% BSA) to 2×10⁶ cells/ml, added as 100 microliters per well to a 96-well FACS reaction plate, added with 100 microliters per well of the antibody sample to be tested, incubated on ice for 1-2 hours. The plate was washed twice with the FACS buffer by centrifugation, added with 100 microliters of fluorescent (Alexa 488)-labeled secondary antibodies per well, and incubated on ice for 0.5-1.0 hours. The plate was washed 2-3 times with FACS buffer by centrifugation, added with 100 μl fixative solution (4% Paraformaldehyde) per well to suspend the cells. 5-10 minutes later, it was washed 1-2 times with FACS buffer by centrifugation. The cells were suspended with 100 microliters of FACS buffer, FACS (FACSCalibur, BD) was used for detection and the results were analyzed.

[3] = target: T3, mouse LAG-3 protein with hFc tag …; test: ELISA, mLAG-3-hFc coated; 0.0667 nM
Description: The plate was sealed with plastic film and incubated overnight at 4° C. The plate was washed 2 times with the plate washing solution (PBS+0.01% Tween20) on the next day, and added with the blocking solution (PBS+0.01% Tween20+1% BSA) and blocked at room temperature for 1-2 hours. The blocking solution was poured out, and the plate was added with 50-100 μl of the antibody sample to be tested to each well, incubated at 37° C. for 1-2 hours, and washed 2-3 times with a plate washing solution (PBS+0.01% Tween20). HRP (horseradish peroxidase) labeled secondary antibody was added, and the plate was incubated at 37° C. for 1-2 hours, and washed 2-3 times with a plate washing solution (PBS+0.01% Tween20). 100 μl of TMB substrate was added to each well. After incubated at room temperature for 15-30 minutes, the plate was added with 100 μl of stop solution (1.0N HCl) to each well.

Row | Binder | Inhibition rate (%) [1] [%] | Mean fluorescence intensity [2] [MFI] | OD450 [3] [OD450]
1 | 405B8H3 (mouse antibody purified from hybridoma) (antibody, V domains shown, also called mAb103-405B8H3; 405B81-13) VH: QVQLQQSGAELVRPGASVTLSCKASGYTFTDYEMHWVKQTPVHGLEWIGATDPETGNSAYNQKFKGKAIMTADKSSSTAYMELRSLTSEDSAVYYCISTGWNDWGQGTSLTVSS VL: DIKMTQSPSSMYASLGERVTITCKASQDINSYLSWFQQKPGKSPKTLIYRADRLLDGVPSRFSGSGSGQDYSLTISSLEYGDMGIYYCLQYDEFPYTFGGGTKLEIK | 94 | 23 | –
2 | 405B8H3 (LAG-3 mouse-human chimeric antibody) (antibody, V domains shown, also called mouse-human chimeric antibody 405B8H3) VH: QVQLQQSGAELVRPGASVTLSCKASGYTFTDYEMHWVKQTPVHGLEWIGATDPETGNSAYNQKFKGKAIMTADKSSSTAYMELRSLTSEDSAVYYCISTGWNDWGQGTSLTVSS VL: DIKMTQSPSSMYASLGERVTITCKASQDINSYLSWFQQKPGKSPKTLIYRADRLLDGVPSRFSGSGSGQDYSLTISSLEYGDMGIYYCLQYDEFPYTFGGGTKLEIK | – | – | 0.08
3 | 105F1E10 (LAG-3 mouse-human chimeric antibody) (antibody, V domains shown) VH: EVQLQQSGPELVKPGASVKMSCRASGYTFTDFKMHWMKQSHGKSLEWIGYIAPNNGGTAYNQKFRGKATLTVNESSNTAYMELRSLTSEDSAVYYCVDWDDVDYWGQGTTLTVSS VL: DIKMTQSPSSMYASLGERVTITCKASQDINSYLSWFQQKSGKSPKTLIYRANRLVDGVPSRFSGSGSGQDYSLTISSLEYEDMGIYYCLQYVEFPLTFGAGTKLELK | – | – | 0.08
4 | 105F1E10 (mouse antibody purified from hybridoma) (antibody, V domains shown, also called mAb009-105F1E10) VH: EVQLQQSGPELVKPGASVKMSCRASGYTFTDFKMHWMKQSHGKSLEWIGYIAPNNGGTAYNQKFRGKATLTVNESSNTAYMELRSLTSEDSAVYYCVDWDDVDYWGQGTTLTVSS VL: DIKMTQSPSSMYASLGERVTITCKASQDINSYLSWFQQKSGKSPKTLIYRANRLVDGVPSRFSGSGSGQDYSLTISSLEYEDMGIYYCLQYVEFPLTFGAGTKLELK | 93.6 | 15.4 | –
5 | 409D4E10 (mouse antibody purified from hybridoma) (antibody, V domains shown, also called mAb112-409D4E10) VH: QVQLQQSGAELVRPGASVTLSCKASGNTFTDYEMHWVKQTPVHGLEWIGATDPETDNTAYNQKFKGKAILTTDKSSSTAYMELRSLTSEDSAVYYCITSGWNDWGQGTSLTVSS VL: DIKMTQSPSSMYASLGERVTITCKASQDINSYLSWFQQKPGKSPKTLIYRANRLLDGVPSRFSGSGSGQDYSLTISSLEYEDMGIYYCLQYNEFPYTFGGGTKLEIK | 96 | 36.1 | –
6 | 409B11E12 (LAG-3 mouse-human chimeric antibody) (antibody, V domains shown) VH: QVQLQQSGAELVRPGASVTLSCKASGYTFTDYEMHWVKQTTVHGLEWIGATDPETSYSAYNQKFKGKAILTADKSSSTAYMELRSLTSEDSAVYYCIATGWNDWGQGTSLTVSS VL: DLKMTQSPSSMYASLGERVTITCKASQDINSYLSWFQQKPGKSPKTLIYRANRLLDGVPSRFSGSGSGQDYSLTISSLEYEDMGIYYCLQYDEFPYTFGGGTKLEIK | – | – | 0.09
7 | 409D4E10 (LAG-3 mouse-human chimeric antibody) (antibody, V domains shown) VH: QVQLQQSGAELVRPGASVTLSCKASGNTFTDYEMHWVKQTPVHGLEWIGATDPETDNTAYNQKFKGKAILTTDKSSSTAYMELRSLTSEDSAVYYCITSGWNDWGQGTSLTVSS VL: DIKMTQSPSSMYASLGERVTITCKASQDINSYLSWFQQKPGKSPKTLIYRANRLLDGVPSRFSGSGSGQDYSLTISSLEYEDMGIYYCLQYNEFPYTFGGGTKLEIK | – | – | 0.13
8 | 409B11E12 (mouse antibody purified from hybridoma) (antibody, V domains shown, also called mAb104-409B11E12) VH: QVQLQQSGAELVRPGASVTLSCKASGYTFTDYEMHWVKQTTVHGLEWIGATDPETSYSAYNQKFKGKAILTADKSSSTAYMELRSLTSEDSAVYYCIATGWNDWGQGTSLTVSS VL: DLKMTQSPSSMYASLGERVTITCKASQDINSYLSWFQQKPGKSPKTLIYRANRLLDGVPSRFSGSGSGQDYSLTISSLEYEDMGIYYCLQYDEFPYTFGGGTKLEIK | 95.5 | 24.4 | –
9 | 556F6B8 (mouse antibody purified from hybridoma) (antibody, V domains shown, also called mAb123-556F6B8) VH: RVQLKQSGPGLVQPSQSLSITCTVSGFSLIKYGVHWVRQSPGEGLEWLGVIWRGGITDYNAAFMSRLSITKDNSKSQVFFKMNSLQADDTAIYYCAKWDGPLAMDYWGQGTSVTVSS VL: DIVMTQSHKFLSTSVGDRVSITCKASQDVGTTVAWYQQKPGQSPKLLIYWASTRHTGVPDRFTGSGSGTDFTLTISNVQSEDLADYFCQQYSSYPYTFGGGTKLEIK | 95.9 | 24.2 | –
10 | 556F6B8 (LAG-3 mouse-human chimeric antibody) (antibody, V domains shown, also called 556F8B8) VH: RVQLKQSGPGLVQPSQSLSITCTVSGFSLIKYGVHWVRQSPGEGLEWLGVIWRGGITDYNAAFMSRLSITKDNSKSQVFFKMNSLQADDTAIYYCAKWDGPLAMDYWGQGTSVTVSS VL: DIVMTQSHKFLSTSVGDRVSITCKASQDVGTTVAWYQQKPGQSPKLLIYWASTRHTGVPDRFTGSGSGTDFTLTISNVQSEDLADYFCQQYSSYPYTFGGGTKLEIK | – | – | 0.11

— patent publication US20210155689A1 (SHANGHAI PHARMAEXPLORER, published 2021)
